From patent US7838288B2, “Modulators of odorant receptors” (Duke University, priority 2004, dated 2010)

Legend:
Format in all cases: cell-based, mouse
Settings in all cases: accessory protein co-transfected in 293T cells
MOR203-1 = experiment: Living-cell staining of cell-surface MOR203-1
Excerpt: After hypothesizing that mammalian ORs require accessory protein(s) for functional cell surface expression, a search was instituted for detecting such molecule(s). Long-SAGE (serial analysis of gene expression) libraries (see, e.g., Saha, S., et al., (2002) Nat Biotechnol 20, 508-512; herein incorporated by reference in its entirety) were constructed from single olfactory neurons as well as neurons from the vomeronasal organ and genes were collected that are expressed by these neurons. To identify candidate genes expressed by the olfactory neurons Digital Differential Display (see, e.g., http://www, followed by, .ncbi.nlm.nih.gov/UniGene/info_ddd.shtml) was also used. Candidate genes were investigated for ORFs that encode membrane associated proteins. Genes were selected with similarities to known chaperones and cloned the cDNAs from olfactory epithelium cDNAs. The mRNA expression of each gene was verified by in situ hybridization. After isolating and subcloning into mammalian expression vectors, each cDNA together with a mouse OR (MOR203-1) tagged with a 20 N-terminal amino acids of rhodopsin (Rho-tag), was transfected into 293T cells. We measured whether these clones had any effect on the cell-surface expression of ORs by staining living cells using antibodies against the Rho-tag (see, e.g., Laird, D. W., and Molday, R. S. (1988) Invest Opthalmol Vis Sci 29, 419-428; herein incorporated by reference in its entirety). When MOR203-1 was transfected alone, antibody staining detected only faint cell-surface expression in less than 1% of the cells. A schematic diagram outlining the screening procedure utilized with the present invention is provided at FIG. 1.
(§1) 293T cells were maintained in minimal essential medium containing 10% fetal bovine serum (M10). Lipofectamine 2000 (Invitrogen) was used for transfection. In live-cell staining, 16 hours after transfection, cells were incubated in M10 containing anti rhodopsin antibody, 4D2 (see, e.g., Laird, D. W., and Molday, R. S. (1988) Invest Opthalmol V is Sci 29, 419-428; herein incorporated by reference in its entirety) and 15 mM NaN3 at 4 degrees C. for 1 hour. After washing, cells were incubated with Cy3-conjugated anti mouse IgG (Jackson Immunologicals), washed and mounted. For FACS analysis, 4D2 and PE-conjugated anti mouse IgG (Jackson Immunologicals) were used to monitor the Rho tagged receptor expression. Anti HA rabbit antibodies (Sigma) and Alexa 488 conjugated anti rabbit IgG (Molecular Probes) was used to stain the HA-β2 adrenergic receptor. To establish the Hana3a cells, 1 ug/ml of puromycin was used for selection. 96 colonies were picked and assayed using luciferase assay using OREG.

OREG = experiment: Living-cell staining of cell-surface OREG
Protocol: The proteins encoded by these clones were named REEP1, for Receptor Expression Enhancing Protein 1 and RTP1, for Receptor Transporting Protein 1. Subsequently, RTP2 was found, a close relative of RTP1. […] Next, REEP1, RTP1, and RTP2 were tested to detect a similar effect in promoting cell-surface expression of other ORs. Four different ORs (mouse OREG, mouse olfr62, mouse OR-S46 and rat I7) were expressed in 293T cells with or without REEP1, RTP1, or RTP2. […] Additionally, ORs transfected with REEP and/or RTP generated more immunofluorescent cells and stronger signals in positive cells compared with ORs without REEP and/or RTP (see FIG. 2A). The signal intensity and the number of immunopositive cells varied when using different ORs at each condition. […] Nonetheless, occasional immunopositive cells were observed only when the accessory proteins were co-expressed. The effects of RTP1 or RTP2 were consistently more robust than that of REEP1. […]

23-1 = experiment: Living-cell staining of cell-surface 23-1
Protocol: as §1

S6 = experiment: Living-cell staining of cell-surface S6
Protocol: as §1

B1: RTP1-A1: RTP1 variant from deleting portions of RTP1-A; murine SEQ ID NO: 46, human SEQ ID NO: 47 (protein, listed as Mus musculus)
chain: MCKSVTTGEWKKVFYEKMEEVKPADSWDFIIDPNLKHNVLAPGWKQYLELHASGRFHCSWCWHTWQSPHVVILFHMYLDKAQRAGSVRMRVFKQLCYECGTARLDESSMLEENIESLVDNLITSLREQCYGERGGHYRIHVASRQDNRRHRGEFCEACQEGIVHWKPSEKLLEEEATTYTFSRAPSPTKPQAETGSGCNFCSIPWCLFWATVLMLIIYLQFSFRTSV
Increased cell-surface staining: cell surface expression of MOR203-1 (MOR203-1) | cell-surface expression of OREG (OREG) | cell-surface expression of 23-1 (23-1) | cell-surface expression of S6 (S6)
